Substitutions are numbered along the chain they refer to.
How the values were obtained:
Experiment in all cases: SPR, KD relative to WT C2;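 note: biacore SPR at 37 °C, anti-C2 mAbs captured via immobilised goat anti-human IgG, C2 alanine or serine surface mutants as analytes, 1:1 model fitted, double-referenced sensograms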
human C2 G414A = target: T1, human C2 G414A (human, UniProt P06681 21-752)
T1 sequence: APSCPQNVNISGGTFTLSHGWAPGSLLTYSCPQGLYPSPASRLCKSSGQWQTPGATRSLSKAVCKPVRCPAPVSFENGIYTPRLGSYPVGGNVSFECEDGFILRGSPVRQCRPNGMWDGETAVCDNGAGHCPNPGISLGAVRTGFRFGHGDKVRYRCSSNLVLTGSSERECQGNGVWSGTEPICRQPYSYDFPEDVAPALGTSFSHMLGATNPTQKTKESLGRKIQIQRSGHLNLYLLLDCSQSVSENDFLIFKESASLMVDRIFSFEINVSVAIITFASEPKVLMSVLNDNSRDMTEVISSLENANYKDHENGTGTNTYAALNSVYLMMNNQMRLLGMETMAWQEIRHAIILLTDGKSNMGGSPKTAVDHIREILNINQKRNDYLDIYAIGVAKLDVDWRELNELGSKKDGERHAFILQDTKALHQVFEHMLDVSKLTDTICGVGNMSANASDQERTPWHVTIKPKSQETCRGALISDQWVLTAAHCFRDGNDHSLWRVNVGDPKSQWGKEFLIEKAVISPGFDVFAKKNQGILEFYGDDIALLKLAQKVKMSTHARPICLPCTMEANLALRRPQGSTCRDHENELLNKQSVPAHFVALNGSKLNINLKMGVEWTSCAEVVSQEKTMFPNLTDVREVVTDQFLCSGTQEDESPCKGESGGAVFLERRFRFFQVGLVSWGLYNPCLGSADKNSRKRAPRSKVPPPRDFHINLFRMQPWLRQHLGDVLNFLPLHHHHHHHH

human C2 V418A = target: T2, human C2 V418A (human, UniProt P06681 21-752)
T2 sequence: T1 sequence with A394G, V398A

human C2 R714A = target: T3, human C2 R714A (human, UniProt P06681 21-752)
T3 sequence: T1 sequence with A394G, R694A

human C2 T442A = target: T4, human C2 T442A (human, UniProt P06681 21-752)
T4 sequence: T1 sequence with A394G, T422A

B1: RF16-226 (antibody, human IgG4 S228P, lambda)
heavy: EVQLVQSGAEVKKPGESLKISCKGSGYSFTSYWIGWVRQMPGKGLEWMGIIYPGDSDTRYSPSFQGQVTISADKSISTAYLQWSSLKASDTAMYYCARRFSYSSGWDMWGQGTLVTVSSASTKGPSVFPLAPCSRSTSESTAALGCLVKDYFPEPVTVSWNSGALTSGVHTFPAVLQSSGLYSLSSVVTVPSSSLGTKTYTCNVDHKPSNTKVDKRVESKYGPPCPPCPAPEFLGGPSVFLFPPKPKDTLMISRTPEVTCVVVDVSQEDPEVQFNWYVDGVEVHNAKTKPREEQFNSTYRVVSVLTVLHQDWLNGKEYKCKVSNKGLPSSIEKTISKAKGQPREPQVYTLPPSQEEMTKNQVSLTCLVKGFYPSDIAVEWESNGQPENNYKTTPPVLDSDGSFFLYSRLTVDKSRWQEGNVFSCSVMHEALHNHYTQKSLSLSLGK
light: SYELTQPPSVSVSPGQTARITCSGDALTSKYVAWYQQKSGLAPLLVIYEDTRRPSGIPAKFSGSSSGSVATLTISGAHGDDEADYYCYSTDASGHQRVFGGGTKLTVLSQPKAAPSVTLFPPSSEELQANKATLVCLISDFYPGAVTVAWKADGSPVKAGVETTKPSKQSNNKYAASSYLSLTPEQWKSHRSYSCQVTHEGSTVEKTVAPTECS
notes: pH-dependent anti-C2 antibody from a phage display library; also called WT
- Fold diff (human C2 G414A): 1 fold
- Fold diff (human C2 V418A): 1 fold
- Fold diff (human C2 R714A): 5 fold
- Fold diff (human C2 T442A): 2 fold

Source: patent US20220332804A1 (CSL INNOVATION, published 2022)
